Source: US20250179196A1 (Janssen / Centocor, published 2025)
Residue numbers refer to the chain shown, from its start.

B1: I23RB268 (antibody, mouse IgG2a, kappa, V domains shown)
VH: QVQLVQSGAEVKKPGSSVKVSCKASGGTFSSYYIHWVRQAPGQGLEWMGGIIPIFGYANYAQKFQGRVTITADESTSTAYMELSSLRSEDTAVYYCARDPGSYGSVYYRRSYYFDYWGQGTLVTVSS
VL: EIVLTQSPATLSLSPGERATLSCRASQSVSSYLAWYQQKPGQAPRLLIYDASNRATGIPARFSGSGSGTDFTLTISSLEPEDFAVYYCQQRSNWPLTFGQGTKVEIKR
notes: phage display; human V, mouse IgG2a/kappa
B2: I23RB259 (antibody, mouse IgG2a, kappa, V domains shown)
VH: QVQLVQSGAEVKKPGSSVKVSCKASGGTFSSYGISWVRQAPGQGLEWMGWISPIFGTTNYAQKFQGRVTITADESTSTAYMELSSLRSEDTAVYYCARMMMQSLDYWGQGTLVTVSS
VL: not shown
notes: as for B1
B3: I23RB270 (antibody, mouse IgG2a, kappa, V domains shown)
VH: QVQLVQSGAEVKKPGSSVKVSCKASGGTFDSYAISWVRQAPGQGLEWMGGIIPISGYANYAQKFQGRVTITADESTSTAYMELSSLRSEDTAVYYCARDLSGGYLGLRTLYYYYFDYWGQGTLVTVSS
VL: B1 VL
notes: as for B1
B4: I23RB269 (antibody, mouse IgG2a, kappa, V domains shown)
VH: QVQLVQSGAEVKKPGSSVKVSCKASGGTFSDASISWVRQAPGQGLEWMGTIIPISGNANYAQKFQGRVTITADESTSTAYMELSSLRSEDTAVYYCARDRYVWYYWDGYFDYWGQGTLVTVSS
VL: not shown
notes: as for B1
B5: I23RB94 (antibody, mouse IgG2a, kappa, V domains shown)
VH: DVQLQESGPELKKPGETVKISCKASGYTFTNYGMNWVRQAPGKSLKWMGWINTNTGEPAYAEEFKGRFAFSLETSASTAYLQINNLKNEDMATYFCARVRQTARATRGYFDVWGTGTTVTVSS
VL: DIVMTQSHKFMSTSVGDRVSITCKASQDVNTAVAWYQQKPGQSPKLLIYSAFYRYPGVPDRFTGSGSGTDFTFTINSVQAEDLAVYCCQQHYTSPLTFGDGTRLEIKR
notes: immunization; mouse IgG2a/kappa
B6: I23RB92 (antibody, mouse IgG2a, kappa, V domains shown)
VH: EVQLQQSGPEVVKPGASVKISCKASGYTFTDHTMDWVKQSHGKNLEWIGYIYPKSGGTGYNQKFKNKATLTVDKSSSTAYMEFHSLTSDDSAVYYCARWGLRRDGFVYWGQGTLVTVSA
VL: DIKMTQSPASLAVSLGQRATISCRASQSVSTSKYDYIHWYQQKSGQPPRLLIKYASNLESGVPARFSGSGSGTDFTLNIHPVEEEDTATYYCQHTWEIPYTFGSGTKLELKR
notes: as for B5
B7: I23RB76 (antibody, mouse IgG2a, kappa, V domains shown)
VH: EVQLQQSGPELVKPGASVKMSCKASGYTFTDYYMNWMKQSHGKSLEWIGYISPKNGRTGYNQKFKGKATLTVDKSSTTAYMELRSLTSEDSAVYYCAKSNGYYALDYWGQGTTVTVSS
VL: DIVLTQSPATLCVTPGETVSLSCRASQNIYKNLHWFQQKSHRSPRLLIKYASDSISGIPSRFTGSGSGTDYTLSINSVKPEDEGIYYCLQGYSTPWTFGGGTKLEIKR
notes: as for B5
B8: I23RB65 (antibody, mouse IgG2a, kappa, V domains shown)
VH: EVQLQQSGPELVKPGASVKISCKASGYTFTDHTMDWVKQSHGKSLEWIGYIYPKSGNAAYSQKFKSEATLTVDKSSSTAYMEFHSLTSEDSAVYYCARWGLRRDGFTYWGQGTSVTVSS
VL: B6 VL with D1Q, K3V, M4L, K33S, D35N, S44P, R49K, E85D, L110I
notes: as for B5
B9: I23RB32 (antibody, mouse IgG2a, kappa, V domains shown)
VH: EFQLQQSGPELVKPGASVKLSCKASGYTFTDYALHWVKQSPGQGLEWIGWIYPGGGNTYYNDKFKGKATMTADKSSSTAYMQLSSLTSEDSAVYFCARGRLRRDYPMDYWGQGTSVTVSS
VL: DIVMTQSPSSLTVTAGEKVTMSCKSSQSLLNSGNQKNYLTWYQQKPGQPPKLLIYWASTRESGVPDRFTGSGSGTDFTLTISSVQAEDLAVYYCQNDYTYPLTFGSGTKLEIKR
notes: as for B5
B10: I23RB33 (antibody, mouse IgG2a, kappa, V domains shown)
VH: EVQLQQSGAELVKPGASVKLSCTASGFNIRDIYIHWVKQRPEQGLEWIGRIDPANGHSIYAAKFQGKATITADTSLNIAYMQLSSLTSGDTAVYYCARGSDNDYGRVLAYWGLGTSVTVSS
VL: DIVLTQSPAIMSASPGEKVTMTCRASSSVRSSYLHWYQQKSGASPKLWIYSTSNLASGVPARFSGSGSGTSYSLTITSVEAEDAATYYCQQYTGNPIFTFGSGTKLELKR
notes: as for B5
B11: I23RB47 (antibody, mouse IgG2a, kappa, V domains shown)
VH: QVQLKESGPGLVAPSQSLSITCTVSGFSLTNYDIHWVRQSPGKGLEWLGVIWSDGRTDYKGAFISRLSISKDNSKSQVFFKMNSLQADDTAIYYCARNNYYRYGRNTMDYWGQGTSVTVSS
VL: DIVLTQSPASQSASLGESVTITCLASQTIGSWLAWYQQKPGKSPQLLIYAATRLADGVPSRFSGSGSGTKFSFKISSLQAEDFVFYYCHQLYSIPLTFGGGTKLEMKR
notes: as for B5
B12: I23RB180 (antibody, mouse IgG2a, kappa, V domains shown)
VH: QVTLKESGPGILQPSQTLSLTCSFSGFSLSTYGMGVGWIRQPSGKGLEWLANIWWNDSKYHNAALKSRLTISKDTSKNQVFLKIASVDTADTATYYCGRIDGYYECVDVWGTGTSVTVSS
VL: DIQMTQSPASLSASVGETVTITCRASVNIHNYLAWYQQKQGKSPQLLVYNAKTLADGVPSRFSGSGSGTQYSLKINSLQPEDFGSYYCQHFWTTPYMYTFGAGTKLELKR
notes: as for B5
B13: I23RB177 (antibody, mouse IgG2a, kappa, V domains shown)
VH: EVQLQQSGPELLKPGASVKISCKASGYTITDYTMHWVKQSHGKSLEWIGGINPNYGGTSYNEKFKDKATLTVDKSSSTAYMELRSLTSEDSAVFYCVRGNIYFDYWGQGTTLTVSS
VL: NTQMTQSPSSMYASLGERVTITCKASQDINSYLSWFQQKPGKSPKALIYRANRLVDGVPSRFSGSGSGQDYSLTISSLEYEDMGIYYCQQYDEFPRTFGAGTKLELKR
notes: as for B5
B14: I23RB161 (antibody, mouse IgG2a, kappa, V domains shown)
VH: EFQLQQSGPELVKPGASVKISCKASVYAFSSSWMNWVKQRPGKGLEWIGRIYPGDGDTNYNGKFKGKATLTADKSSSTAYMQLSSLTSEDSAVYFCARRYDFGSAMDYWGQGTSVTVSS
VL: DIVMTQSPAILSASPGEKVTMTCRASSSVSYMHWYQQKPGSSPKPWIYATSDLASGAPARFSGSGSGTSYSLTISRVEAEDAATYYCQQWSSNPPTFGGGTKLEIKR
notes: as for B5
B15: I23RB159 (antibody, mouse IgG2a, kappa, V domains shown)
VH: EVQLQQSGGGLVKPGGSLKLSCAASGFTFSDYGMAWVRQTPRKGPEWIAFISNLAYSVYYSDTVTGRFTISRENAKNTLYLEMSSLRSEDTAMYYCARHGDYRNYGFAYWGLGTTVTVSS
VL: DIVMTQTTSSLSASLGDRVTISCRASQDISNYLNWYQQKPDGTVKLLIYYTSRLHSGVPSRFSGSGSGTDYSLTISNLEQEDIATYFCQQGNTLPWTFGAGTKLELKR
notes: as for B5

Biological target: T1, human IL-23R expressed on the cell surface of stably transfected iLite and HEK cell lines (human, UniProt Q5VWK5 24-629)
T1 construct: whole, on cells; Same receptor on two transfected cell lines; the cell line is named under assay; also called human IL-23R iLite cells; human IL-23R HEK cells
T1 sequence (looked up): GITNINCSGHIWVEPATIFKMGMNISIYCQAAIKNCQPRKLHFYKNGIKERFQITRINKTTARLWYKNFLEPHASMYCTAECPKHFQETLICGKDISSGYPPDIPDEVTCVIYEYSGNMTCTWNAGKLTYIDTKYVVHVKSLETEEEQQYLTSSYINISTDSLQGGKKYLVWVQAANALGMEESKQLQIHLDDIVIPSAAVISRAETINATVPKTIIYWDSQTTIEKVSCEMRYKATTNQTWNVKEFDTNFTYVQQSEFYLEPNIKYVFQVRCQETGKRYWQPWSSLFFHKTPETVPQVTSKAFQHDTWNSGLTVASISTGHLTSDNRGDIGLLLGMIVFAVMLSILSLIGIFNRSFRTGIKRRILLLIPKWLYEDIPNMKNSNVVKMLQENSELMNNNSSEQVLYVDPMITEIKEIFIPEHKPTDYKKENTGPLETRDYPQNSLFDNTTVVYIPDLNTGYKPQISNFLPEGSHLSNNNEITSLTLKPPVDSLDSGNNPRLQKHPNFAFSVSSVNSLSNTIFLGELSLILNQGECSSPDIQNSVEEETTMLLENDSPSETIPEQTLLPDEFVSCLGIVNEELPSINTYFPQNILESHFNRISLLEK
Test: flow cytometry on human IL-23R HEK cells, Expt D (8-point, 96well)
Experimental: HEK-IL-23R cell concentration response mAb binding (8-point, 96-well assay). […] HEK-IL-23R and HEK-parental cells (12.5 μL of each, 120000 cells total) were plated in 2× replicate on 96-well V-bottom plates (Corning, Cat #3357) into 37° C. warmed Assay medium containing serially diluted IL-23R mAbs to a final volume of 150 μL. IL-23R mAbs were allowed to bind to cells for 30 minutes, at 37° C. […] Cells were next washed twice in ice-cold stain buffer, then resuspended in a final volume of 30 μL with Sytox Green viability dye (ThermoFisher, Cat #S7020). Plates were kept on ice until run for analysis on the iQue. All washes were performed by centrifugation (800 rcf, 3 minutes) followed by flick decantation to remove supernatants. Cell-binding to HEK-IL-23R cells was measured with FlowJo, by gating for single, viable cells and determining the geometric mean fluorescence intensity (MFI) for the 647 detection antibody. Geometric mean fluorescence intensities were plotted over log mAb concentrations fitted with a dose response curve with variable slope using GraphPad Prism.

| Binder | EC50 [nM] |
| --- | --- |
| B1 | 20.6 |
| B2 | 29.7 |
| B3 | 0.5 |
| B4 | 0.6 |
| B5 | 0.1 |
| B6 | 0.2 |
| B7 | 0.4 |
| B8 | 0.3 |
| B9 | 0.4 |
| B10 | 0.2 |
| B11 | 0.2 |
| B12 | 27.6 |
| B13 | > 50 |
| B14 | 0.8 |
| B15 | > 50 |

Biological target: T1, human IL-23R expressed on the cell …
Test: flow cytometry on human IL-23R HEK cells, Expt E (11-point, 384well)
Experimental: HEK-IL-23R cell concentration response mAb binding (11-point, 384-well assay). […] IL-23R mAbs were allowed to bind to cells for 30 minutes, at 37° C. […] Cells were next washed twice in ice-cold stain buffer, then resuspended in a final volume of 10 μL with Sytox Green viability dye (ThermoFisher, Cat #S7020). Plates were kept on ice until run for analysis on the iQue. All washes were performed by centrifugation (800 rcf, 3 minutes) followed by automated aspiration to remove supernatants with plate washers. Cell-binding to HEK-IL-23R cells was measured with FlowJo, by gating for single, viable cells and determining the geometric mean fluorescence intensity (MFI) for the 647 detection antibody. Geometric mean fluorescence intensities were plotted over log mAb concentrations fitted with a dose response curve with variable slope using GraphPad Prism.

| Binder | EC50 [nM] | MFI (6.4 nM) [MFI] |
| --- | --- | --- |
| B1 | 38.2 | 51900 |
| B2 | > 50 | 30900 |
| B3 | 7.2 | 243000 |
| B4 | 14.7 | 96800 |
| B5 | 2.8 | 364000 |
| B6 | 4 | 376000 |
| B7 | 11.9 | 322000 |
| B8 | 4 | 275000 |
| B9 | 5.1 | 292000 |
| B10 | 5.6 | 306000 |
| B11 | 4.1 | 364000 |
